Data: article PMC10417383, “DNA-Binding Activity of CAMTA3 Is Essential for Its Function: Identification of Critical Amino Acids for Its Transcriptional Activity”
Positions count from the first letter of the chain named.

Columns and labels:
Assay in all cases: EMSA; 500 ng protein; 1X LightShift EMSA binding buffer, 50 ng/ul poly(dI-dC), 20 fmol probe in 20 ul, +/- 4 pmol unlabeled DNA, room temperature 30 min; 5% native PAGE, 0.5X TBE; pH and salt not given
Settings in all cases: protein: recombinant; tags: His (pET28a); label: 3'-biotin on strand 1; blunt
[1] = target: T1, CAMTA3 CG-1 M2 (Arabidopsis thaliana, UniProt Q8GSA7 1-153, W75A)
T1 sequence: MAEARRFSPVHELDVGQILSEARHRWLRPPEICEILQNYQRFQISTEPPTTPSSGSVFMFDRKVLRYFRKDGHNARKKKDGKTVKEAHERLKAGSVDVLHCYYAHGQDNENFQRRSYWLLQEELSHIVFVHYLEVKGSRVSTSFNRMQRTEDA

[2] = target: T2, CAMTA3 CG-1 M4 (Arabidopsis thaliana, UniProt Q8GSA7 1-153, Y102A;Y103A)
T2 sequence: T1 sequence with A75W, Y102A, Y103A

[3] = target: T3, CAMTA3 CG-1 M1 (Arabidopsis thaliana, UniProt Q8GSA7 1-153, W26A)
T3 sequence: T1 sequence with W26A, A75W

[4] = target: T4, CAMTA3 CG-1 M6 (Arabidopsis thaliana, UniProt Q8GSA7 1-153, Y132A)
T4 sequence: T1 sequence with A75W, Y132A

[5] = target: T5, CAMTA3 CG-1 M3 (Arabidopsis thaliana, UniProt Q8GSA7 1-153, H88A)
T5 sequence: T1 sequence with A75W, H88A

Measured: binding result

B1: PDF1.4 promoter probe (dsDNA)
DNA 1: CGTGAAAGTCACGCGCCAAGAACAAA
DNA 2: TTTGTTCTTGGCGCGTGACTTTCACG
no binding: [1] | [2] | [3] | [4] | [5]
